In US20110165265A1, “TRAIL VARIANTS FOR TREATING CANCER” (FUNDACIÓ GENÒMICA (CRG), priority 2007, published 2011):
Several values for one entry are separate records, joined by “and”; a condition that tells them apart may be missing. Identical values can stand only once. Entries after “also recorded” stand apart in the source; their conditions may differ.

B1: wtTRAIL: wild-type soluble recombinant human TRAIL, amino acids 114-281 (SEQ ID NO: 3) (protein, listed as Homo sapiens)
chain: MVRRGRVAAHTGTRGRSNTSSNSKNKAGRKNSWSSRSGHSSNHRNGVHKGYYYSTYRKNTKNDKMVYYKYTSYDMKSARNSCWSKDAYGYSYGGKNDRVSVTNHDMDHASGAVG
modifications: TRAIL 114-281
B2: D269HE195R: rhTRAIL (114-281) carrying mutations D269H and E195R; DR5-selective TRAIL variant (protein)
chain: MVRERGPQRVAAHITGTRGRSNTLSSPNSKNEKALGRKINSWESSRSGHSFLSNLHLRNGELVIHEKGFYYIYSQTYFRFQERIKENTKNDKQMVQYIYKYTSYPDPILLMKSARNSCWSKDAEYGLYSIYQGGIFELKENDRIFVSVTNEHLIDMHHEASFFGAFLVG

Experiments:
Colo205 cells [1] = assay: Kinetics of receptor activation and apoptosis induction, ligand wash-out in Colo205; assay type: cell-based, human; settings: Colo205, 30 ng/ml; for incubation time to reach 50% of total efficacy: ligand washed out, Annexin V at 240 min
Procedure: Cell death induction was expressed relative to the percentage of death induced after 240 min without washing out the ligands.
The cells were harvested and cell death was quantified with Annexin V labelling (FIG. 16B), as described above. The data was fitted with an interpolating spline using the software MatlabR.
The cells were then incubated to a total of 180 min in normal growth medium and then the level of cell death was determined (FIG. 16C).

ML-1 cells = assay: Cytotoxicity in ML-1 cells; assay type: cell-based
Procedure: Colo205 and ML-1 cells were then treated with increasing concentrations of TRAIL or the DR5-specific variants D269H, D269HE195R, and D269H/T214R, and their cytotoxic potential was measured with a 3-(4,5-dimethylthiazol-2-yl)-2,5-diphenyl tetrazolium bromide (MTT) assay.

Human dermal fibroblasts = assay: MTT viability of human dermal fibroblasts; assay type: cell-based; settings: 50-500 ng/ml, 24 h
Procedure: Human dermal fibroblasts were grown in low glucose DMEM (Sigma) supplemented with 10% fetal calf serum, 50 U/ml penicillin and […] streptomycin; human umbilical vein endothelial cells (HUVEC, PromoCell) were cultured in Endothelial Cell Growth Medium with SupplementMix (PromoCell). Fibroblasts and HUVEC cells were seeded at 1.3×10^5 cells/ml 24 h before treatment with increasing concentrations of TRAIL and DR5-selective variants, D269H and D269HE195R (50-500 ng/ml) for 24 h and cell viability was measured using MTT assay, wherein 200 μg/ml MTT (3-(4,5-dimethylthiazo1-2-yl)-2,5-diphenyl-tetrazolium bromide) was added to control and treated cells and incubated for 3 h at 37° C. The reaction was stopped and the purple formazan precipitate formed was dissolved using dimethyl sulfoxide (DMSO) and the colour intensity was measured at 550 nm on a Wallac multilabel counter. The control value corresponding to untreated cells was taken as 100% and the viability of treated samples was expressed as a percentage of the control. (FIG. 15).

SW948 cells = assay: Cell survival / sensitivity of SW948; assay type: cell-based
Colo205 cells [2] = assay: Annexin V apoptosis in Colo205 after PI3K inhibition; assay type: cell-based, human; settings: 20 μM LY294002 15-18 hours, ligand 0.1 μg/ml 3 h
Procedure: Modulation of TRAIL and D269H/E195R induced apoptosis by PI3K inhibition in Colo205, as assessed by Annexin V assay. Cells were pre-incubated for 15-18 hours with 20 μM LY294002, then either left untreated or exposed to rhTRAIL (0.1 μg/ml) or D269H/E195R (0.1 μg/ml) for 3 additional hours before harvest.

Colo205 cells [3] = assay: DEVDase (caspase) activity in Colo205; assay type: cell-based, human; settings: Colo205, 5 mM aspirin 24 h
Procedure: (A) Aspirin induces expression of DR5, DcR1 and DcR2 on the cell surface. Colo205 cells were treated with 5 mM aspirin for 24 h and cell surface expression of DR4, DR5, DcR1 and DcR2 was measured by immunostaining and detected with flow cytometry. The histograms shown include isotype control (black, open peak), untreated Colo205 (grey, closed peak) and aspirin-treated Colo205 (grey, open peak) samples. The histograms are representatives of three independent experiments. […] DEVDase activity was expressed as average nmol AMC released per minute by 1 mg total cellular protein±SD of 3 independent experiments.
In order to determine the cell surface expression of each of the TRAIL receptors on A2780 carcinoma cells, cells were washed twice in PBS containing 1% BSA and then incubated with monoclonal antibodies to DR4, DR5, DcR1 or DcR2 (Alexis) for 40 min. After two wash steps with PBS/BSA, anti-mouse IgG-FITC (Sigma) secondary antibody was added for 30 min. All incubations were carried out on ice. Negative controls contained isotype control antibody. Cells were analyzed by a FacsCalibur flow cytometer. […] Substrate cleavage leading to the release of free AMC was monitored at 37° C. at 60 sec intervals for 25 cycles using a Wallac multilabel counter (excitation 355 nm, emission 460 nm). […]

SiHa cells = assay: Cell survival / sensitivity of SiHa; assay type: cell-based
From the text: (A) Effect of increasing concentration of Bortezomib on cell survival. […] (C) 10Gy Radiotherapy had no effect in further decreasing cell viability of SIHA cells in both TRAIL and DR5 mutant treated cells.

DcR1 = target: T1, DcR1 (Homo sapiens, UniProt O14798); settings: cited from earlier work
T1 construct: soluble, recombinant DcR1-Ig (sDcR1) and DcR2-Ig (sDcR2); purchased R&D Systems
T1 sequence (O14798 26-236 limits assumed): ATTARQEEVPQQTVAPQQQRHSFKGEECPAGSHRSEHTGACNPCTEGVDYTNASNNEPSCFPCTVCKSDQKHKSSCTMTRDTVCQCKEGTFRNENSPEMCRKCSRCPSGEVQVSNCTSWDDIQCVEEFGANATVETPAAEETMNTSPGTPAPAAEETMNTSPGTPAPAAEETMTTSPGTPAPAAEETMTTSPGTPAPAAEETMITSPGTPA

HeLa xenografts = HeLa xenografts in athymic nude mice; assay type: in vivo; settings: start at +/−150 mm3
From the text: Xenografts of the HeLa cervical cancer cell line were established with matrigel in athymic nude mice. Treatment was started when tumor volume was +/−150 mm3.

Molecule	incubation time for significant pro-caspase-8 processing (Colo205 cells [1]; Western blot)	incubation time to reach 50% of total efficacy (Colo205 cells [1])	cell death induction (ML-1 cells)	cell viability (Human dermal fibroblasts)	cell viability, single agent (SW948 cells)	effect of 5-FU on sensitivity (SW948 cells)	sensitivity, single agent comparison (SW948 cells)	change of sensitivity after PI3K inhibition (Colo205 cells [2])	sensitisation by aspirin (Colo205 cells [3])	effect of combination with bortezomib (SiHa cells)	sensitivity, single agent (SiHa cells)	Kd (DcR1; surface plasmon resonance, read-out: binding affinity Kd for DcR1)	effect on xenografts (HeLa xenografts)	effect of 5 or 10 min pre-incubation with wtTRAIL on induced apoptosis (Colo205 cells [1])	effect of Aspirin (SW948 cells)	binding capacity to DcR1 (DcR1; earlier work referred to)
B1	60 min	60.81 min and 60.8 ± 4.3 min	able to induce cell death	Neither wtTRAIL nor the DR5-selective variants had any effect; also recorded: did not result in a decrease in cell viability	greater loss in cell viability compared to that of the DR5 mutant at higher concentrations	enhanced sensitivity	higher sensitivity	slightly decreased	increased the sensitivity	increased tumor cell death	resistant	~25 nM	No effect was observed	–	–	–
B2	–	3.55 min and 3.6 ± 0.4 min	only TRAIL was able to induce cell death; also recorded: hardly any apoptosis	did not result in a decrease in cell viability	decreased cell viability	–	–	enhanced	much more pronounced	increased tumor cell death	resistant	–	No effect was observed	failed to reduce	enhanced the effect	virtually absent
